To fix the notation:
B1: clone A52 (antibody, V domains shown)
VH: EVQLVESGGGLVKPGGSLRLSCAASGFTFSSYAMNWVRQAPGKGLEWVSTITTGGSHTYYADSVDGRFTISRDNAKNSLYLQMNSLRAEDTAVYYCARQDGNFLMDYWGQGTLVTVSS
VL: DVVMTQTPLSLPVTLGQPASISCKSSQSLLDIDGKTYLNWLQQRPGQSPKRLIYLVSKLDSGVPDRFTGSGSGTDFTLKISRVEAEDVGVYYCWQGTHFPFTFGQGTKVEIKR
notes: Fab from phage library at selection; human IgG4/kappa IgG as purified
B2: clone A74 (antibody, V domains shown)
VH: EVQLVESGGGLVKPGGSLRLSCAASGFTFSSYAMHWVRQAPGKGLEWVSTITTGGSYTYYADSVQGRFTISRDNAKNSLYLQMNSLRAEDTAVYYCARQDGNFLMDYWGQGTLVTVSS
VL: DVVMTQTPLSLPVTLGQPASISCKSSQSLLDIDGKTYLNWLQQRPGQSPKRLIYLVSKLDSGVPDRFTGSGSGTDFTLKISRVEAEDVGVYYCWQGTHFPFTFGQGTKVEIKR
notes: as for B1
B3: clone A71 (antibody, V domains shown)
VH: EVQLVESGGGLVKPGGSLRLSCAASGFTFSSYAMNWVRQAPGKGLEWVSTITTGGSYTYYADSVHGRFTISRDNAKNSLYLQMNSLRAEDTAVYYCARQDGNFLMDYWGQGTLVTVSS
VL: DVVMTQTPLSLPVTLGQPASISCKSSQSLLDTDGKTYLNWLQQRPGQSPKRLIYLVSKLDSGVPDRFTGSGSGTDFTLKISRVEAEDVGVYYCWQGTHFPFTFGQGTKVEIKR
notes: as for B1

The assay concerns the target T1, recombinant human TFPI (tissue factor pathway inhibitor) (human, UniProt P10646 29-304).
T1 construct: Biotin-conjugated in the yeast FACS; also called hTFPI; TFPI antigen
Kind of assay: ELISA of phage-library Fab supernatants on TFPI-coated plate. On the procedure:
Single colonies were collected from the finally amplified library, and then cultured in 1.5 mL of SB/carbenicillin at 37° C. at 220 rpm until an OD600 of about 0.8-1.0 was reached, followed by incubation with 1 mM IPTG at 30° C. at 200 rpm for 12 hours. Next, the cells were centrifuged at 5500 rpm for 5 minutes, and the supernatant was added to a TFPI antigen-coated ELISA plate, incubated at room temperature for 2 hours, and then washed four times with PBST (1×PBS, 0.05% tween 20). Next, a 1:5000 dilution of an HRP/anti-hFab-HRP conjugate (CAT. No. A0293, Sigma) with 1% BSA/1×PBS was added to the cells, after which the cells were incubated at room temperature for 1 hour and washed four times with PBST (1×PBS, 0.05% tween 20). Then, the cells treated with a TMB solution for 5-10 minutes, and a TMB stop solution was added to the cells. Next, the absorbance at a wavelength of 450 nm was measured using the TECAN sunrise, and clones having high O. D values were selected as individual clones.
B1: the binding result was “binds”. As to B2, the binding result is “binds”. With B3 the entry was “binds”.

For the origin of these results see patent US20180030151A1 (MOGAM INSTITUTE FOR BIOMEDICAL RESEARCH, published 2018).
